B1: Drosophila Serrate, full-length (expression construct Ser-mtn), expressed on Drosophila S2 cells (ligand)
chain: GNFELEILEISNTNSHLLNGYCCGMPAELRATKTIGCSPCTTAFRLCLKEYQTTEQGASISTGCSFGNATTKILGGSSFVLSDPGVGAIVLPFTFRWTKSFTLILQALDMYNTSYPDAERLIEETSYSGVILPSPEWKTLDHIGRNARITYRVRVQCAVTYYNTTCTTFCRPRDDQFGHYACGSEGQKLCLNGWQGVNCEEAICKAGCDPVHGKCDRPGECECRPGWRGPLCNECMVYPGCKHGSCNGSAWKCVCDTNWGGILCDQDLNFCGTHEPCKHGGTCENTAPDKYRCTCAEGLSGEQCEIVEHPCATRPCRNGGTCTLKTSNRTQAQVYRTSHGRSNMGRPVRRSSSMRSLDHLRPEGQALNGSSSSGLVSLGSLQLQQQLAPDFTCDCAAGWTGPTCEINIDECAGGPCEHGGTCIDLIGGFRCECPPEWHGDVCQVDVNECEAPHSAGIAANALLTTTATAIIGSNLSSTALLAALTSAVASTSLAIGPCINAKECRNQPGSFACICKEGWGGVTCAENLDDCVGQCRNGATCIDLVNDYRCACASGFTGRDCETDIDECATSPCRNGGECVDMVGKFNCICPLGYSGSLCEEAKENCTPSPCLEGHCLNTPEGYYCHCPPDRAGKHCEQLRPLCSQPPCNEGCFANVSLATSATTTTTTTTTATTTRKMAKPSGLPCSGHGSCEMSDVGTFCKCHVGHTGTFCEHNLNECSPNPCRNGGICLDGDGDFTCECMSGWTGKRCSERATGCYAGQCQNGGTCMPGAPDKALQPHCRCAPGWTGLFCAEAIDQCRGQPCHNGGTCESGAGWFRCVCAQGFSGPDCRINVNECSPQPCQGGATCIDGIGGYSCICPPGRHGLRCEILLSDPKSACQNASNTISPYTALNRSQNWLDIALTGRTEDDENCNACVCENGTSRCTNLWCGLPNCYKVDPLSKSSNLSGVCKQHEVCVPALSETCLSSPCNVRGDCRALEPSRRVAPPRLPAKSSCWPNQAVVNENCARLTILLALERVGKGASVEGLCSLVRVLLAAQLIKKPASTFGQDPGMLMVLCDLKTGTNDTVELTVSSSKLNDPQLPVAVGLLGELLSSRQLNGIQRRKELELQHAKLAALTSIVEVKLETARVADGSGHSLLIGVLCGVFIVLVGFSVFISLYWKQRLAYRTSSGMNLTPSLDALRHEEEKSNNLQNEENLRRYTNPLKGSTSSLRAATGMELSLNPAPELAASAASSSALHRSQPLFPPCDFERELDSSTGLKQAHKRSSQILLHKTQNSDMRKNTVGSLDSPRKDFGKRSINCKSMPPSSGDEGSDVLATTVMV
notes: also called full-length Serrate

Legend:
[1] = target: B1; test: cell aggregation assay, S2 cells
[2] = target: the molecule itself; test: cell aggregation assay, S2 cells

Binder | binding result [1] | binding result [2]
Drosophila Delta, expressed on cells (ligand, Drosophila melanogaster, UniProt P10041 19-833, looked up, whole, on cells; That entry appears to be only part of Delta, so it was not used for the whole protein on cells; also called Delta expressing cells) QVHSSGSFELRLKYFSNDHGRDNEGRCCSGESDGATGKCLGSCKTRFRVCLKHYQATIDTTSQCTYGDVITPILGENSVNLTDAQRFQNKGFTNPIQFPFSFSWPGTFSLIVEAWHDTNNSGNARTNKLLIQRLLVQQVLEVSSEWKTNKSESQYTSLEYDFRVTCDLNYYGSGCAKFCRPRDDSFGHSTCSETGEIICLTGWQGDYCHIPKCAKGCEHGHCDKPNQCVCQLGWKGALCNECVLEPNCIHGTCNKPWTCICNEGWGGLYCNQDLNYCTNHRPCKNGGTCFNTGEGLYTCKCAPGYSGDDCENEIYSCDADVNPCQNGGTCIDEPHTKTGYKCHCANGWSGKMCEEKVLTCSDKPCHQGICRNVRPGLGSKGQGYQCECPIGYSGPNCDLQLDNCSPNPCINGGSCQPSGKCICPAGFSGTRCETNIDDCLGHQCENGGTCIDMVNQYRCQCVPGFHGTHCSSKVDLCLIRPCANGGTCLNLNNDYQCTCRAGFTGKDCSVDIDECSSGPCHNGGTCMNRVNSFECVCANGFRGKQCDEESYDSVTFDAHQYGATTQARADGLTNAQVVLIAVFSVAMPLVAVIAACVVFCMKRKRKRAQEKDDAEARKQNEQNAVATMHHNGSGVGVALASASLGGKTGSNSGLTFDGGNPNIIKNTWDKSVNNICASAAAAAAAAAAADECLMYGGYVASVADNNNANSDFCVAPLQRAKSQKQLNTDPTLMHRGSPAGSSAKGASGGGPGAAEGKRISVLGEGSYCSQRWPSLAAAGVAGACSSQLMAAASVAGSGAGTAQQQRSVVCGTPHM | no binding | –
B1 | – | no binding

— patent US6703489 (YALE UNIVERSITY, dated 2004)
